The results in this text go back to article PMC4839745.

In the experiment the target is HARE(ΔM3) single-motif deletion cytoplasmic domain mutant lacking NPLY2519. The experiment is described as follows: co-IP; HARE variants precipitated from cell lysate (300 μg protein) with goat anti-V5 Ab (2 μg/ml) and Protein A/G Plus Agarose, 4°C; blot with anti-tERK1/2 Ab; cells incubated with or without 10 μg/ml (709 nM) UFH for 20 min; Lysis Buffer with 0.5% Nonidet P-40.

On to “ERK1 (of ERK1/2, p44/42) (from UniProt P27361 1-379) (enzyme)”, for which the percent decrease of association (tERK:HARE ratio) against WT HARE was found to be 67%. Regarding “ERK2 (of ERK1/2, p44/42) (from UniProt P28482 1-360) (enzyme)”, the percent decrease of association (tERK:HARE ratio) against WT HARE was determined as 67%.
